Data reported in US20120135923A1 (IPSEN PHARMA S A S, published 2012).
Bridge positions count the residues as written; N and C are the ends. Square brackets hold non-standard residues; d marks the D form. 1Nal = N[C@@H](Cc1cccc2ccccc12)C(=O)O; 2Nal = N[C@@H](Cc1ccc2ccccc2c1)C(=O)O; d2Nal = N[C@H](Cc1ccc2ccccc2c1)C(=O)O; Bta = N[C@@H](Cc1csc2ccccc12)C(=O)O; βAla = NCCC(=O)O

B1: Ac-c(Cys-Glu-His-D-2-Nal-Arg-1-Nal-Ala-Cys)-Pro-Pro-Arg-Asp-β-[…]NH2 (peptide)
peptide: Ac-CEH[d2Nal]R[1Nal]ACPPRD[βAla]RRRRRQRRR-NH2
modifications: disulfide 1-8
SMILES: CC(=O)N[C@H]1CSSC[C@@H](C(=O)N2CCC[C@H]2C(=O)N2CCC[C@H]2C(=O)N[C@@H](CCCNC(=N)N)C(=O)N[C@@H](CC(=O)O)C(=O)NCCC(=O)N[C@@H](CCCNC(=N)N)C(=O)N[C@@H](CCCNC(=N)N)C(=O)N[C@@H](CCCNC(=N)N)C(=O)N[C@@H](CCCNC(=N)N)C(=O)N[C@@H](CCCNC(=N)N)C(=O)N[C@@H](CCC(N)=O)C(=O)N[C@@H](CCCNC(=N)N)C(=O)N[C@@H](CCCNC(=N)N)C(=O)N[C@@H](CCCNC(=N)N)C(N)=O)NC(=O)[C@H](C)NC(=O)[C@H](Cc2cccc3ccccc23)NC(=O)[C@H](CCCNC(=N)N)NC(=O)[C@@H](Cc2ccc3ccccc3c2)NC(=O)[C@H](Cc2c[nH]cn2)NC(=O)[C@H](CCC(=O)O)NC1=O
B2: Ac-c(Cys-Glu-His-D-2-Nal-Arg-1-Nal-Ala-Cys)-Pro-Pro-Lys-Asp-β-[…]NH2 (peptide)
peptide: Ac-CEH[d2Nal]R[1Nal]ACPPKD[βAla]RRKRRQRRR-NH2
modifications: disulfide 1-8
SMILES: CC(=O)N[C@H]1CSSC[C@@H](C(=O)N2CCC[C@H]2C(=O)N2CCC[C@H]2C(=O)N[C@@H](CCCCN)C(=O)N[C@@H](CC(=O)O)C(=O)NCCC(=O)N[C@@H](CCCNC(=N)N)C(=O)N[C@@H](CCCNC(=N)N)C(=O)N[C@@H](CCCCN)C(=O)N[C@@H](CCCNC(=N)N)C(=O)N[C@@H](CCCNC(=N)N)C(=O)N[C@@H](CCC(N)=O)C(=O)N[C@@H](CCCNC(=N)N)C(=O)N[C@@H](CCCNC(=N)N)C(=O)N[C@@H](CCCNC(=N)N)C(N)=O)NC(=O)[C@H](C)NC(=O)[C@H](Cc2cccc3ccccc23)NC(=O)[C@H](CCCNC(=N)N)NC(=O)[C@@H](Cc2ccc3ccccc3c2)NC(=O)[C@H](Cc2c[nH]cn2)NC(=O)[C@H](CCC(=O)O)NC1=O
B3: Ac-c(Cys-Glu-His-D-2-Nal-Arg-2-Nal-Ala-Cys)-Pro-Pro-Lys-Asp-β-[…]NH2 (peptide)
peptide: Ac-CEH[d2Nal]R[2Nal]ACPPKD[βAla]RRKRRQRRR-NH2
modifications: disulfide 1-8
SMILES: CC(=O)N[C@H]1CSSC[C@@H](C(=O)N2CCC[C@H]2C(=O)N2CCC[C@H]2C(=O)N[C@@H](CCCCN)C(=O)N[C@@H](CC(=O)O)C(=O)NCCC(=O)N[C@@H](CCCNC(=N)N)C(=O)N[C@@H](CCCNC(=N)N)C(=O)N[C@@H](CCCCN)C(=O)N[C@@H](CCCNC(=N)N)C(=O)N[C@@H](CCCNC(=N)N)C(=O)N[C@@H](CCC(N)=O)C(=O)N[C@@H](CCCNC(=N)N)C(=O)N[C@@H](CCCNC(=N)N)C(=O)N[C@@H](CCCNC(=N)N)C(N)=O)NC(=O)[C@H](C)NC(=O)[C@H](Cc2ccc3ccccc3c2)NC(=O)[C@H](CCCNC(=N)N)NC(=O)[C@@H](Cc2ccc3ccccc3c2)NC(=O)[C@H](Cc2c[nH]cn2)NC(=O)[C@H](CCC(=O)O)NC1=O
B4: Ac-c(Cys-Glu-His-D-2-Nal-Arg-2-Nal-Ala-Cys)-Pro-Pro-Lys-Asp-β-[…]NH2 (peptide)
peptide: Ac-CEH[d2Nal]R[2Nal]ACPPKD[βAla]RKRRRQRRR-NH2
modifications: disulfide 1-8
SMILES: CC(=O)N[C@H]1CSSC[C@@H](C(=O)N2CCC[C@H]2C(=O)N2CCC[C@H]2C(=O)N[C@@H](CCCCN)C(=O)N[C@@H](CC(=O)O)C(=O)NCCC(=O)N[C@@H](CCCNC(=N)N)C(=O)N[C@@H](CCCCN)C(=O)N[C@@H](CCCNC(=N)N)C(=O)N[C@@H](CCCNC(=N)N)C(=O)N[C@@H](CCCNC(=N)N)C(=O)N[C@@H](CCC(N)=O)C(=O)N[C@@H](CCCNC(=N)N)C(=O)N[C@@H](CCCNC(=N)N)C(=O)N[C@@H](CCCNC(=N)N)C(N)=O)NC(=O)[C@H](C)NC(=O)[C@H](Cc2ccc3ccccc3c2)NC(=O)[C@H](CCCNC(=N)N)NC(=O)[C@@H](Cc2ccc3ccccc3c2)NC(=O)[C@H](Cc2c[nH]cn2)NC(=O)[C@H](CCC(=O)O)NC1=O
B5: Ac-c(Cys-Glu-His-D-2-Nal-Arg-Bal-Ala-Cys)-Pro-Pro-Arg-Asp-β-[…]NH2 (peptide)
peptide: Ac-CEH[d2Nal]R[Bta]ACPPRD[βAla]RRRRRQRRR-NH2
modifications: disulfide 1-8
SMILES: CC(=O)N[C@H]1CSSC[C@@H](C(=O)N2CCC[C@H]2C(=O)N2CCC[C@H]2C(=O)N[C@@H](CCCNC(=N)N)C(=O)N[C@@H](CC(=O)O)C(=O)NCCC(=O)N[C@@H](CCCNC(=N)N)C(=O)N[C@@H](CCCNC(=N)N)C(=O)N[C@@H](CCCNC(=N)N)C(=O)N[C@@H](CCCNC(=N)N)C(=O)N[C@@H](CCCNC(=N)N)C(=O)N[C@@H](CCC(N)=O)C(=O)N[C@@H](CCCNC(=N)N)C(=O)N[C@@H](CCCNC(=N)N)C(=O)N[C@@H](CCCNC(=N)N)C(N)=O)NC(=O)[C@H](C)NC(=O)[C@H](Cc2csc3ccccc23)NC(=O)[C@H](CCCNC(=N)N)NC(=O)[C@@H](Cc2ccc3ccccc3c2)NC(=O)[C@H](Cc2c[nH]cn2)NC(=O)[C@H](CCC(=O)O)NC1=O
B6: Ac-c(Cys-Glu-His-D-2-Nal-Arg-Bal-Ala-Cys)-Pro-Pro-Lys-Asp-β-[…]NH2 (peptide)
peptide: Ac-CEH[d2Nal]R[Bta]ACPPKD[βAla]RKRRRQRRR-NH2
modifications: disulfide 1-8
SMILES: CC(=O)N[C@H]1CSSC[C@@H](C(=O)N2CCC[C@H]2C(=O)N2CCC[C@H]2C(=O)N[C@@H](CCCCN)C(=O)N[C@@H](CC(=O)O)C(=O)NCCC(=O)N[C@@H](CCCNC(=N)N)C(=O)N[C@@H](CCCCN)C(=O)N[C@@H](CCCNC(=N)N)C(=O)N[C@@H](CCCNC(=N)N)C(=O)N[C@@H](CCCNC(=N)N)C(=O)N[C@@H](CCC(N)=O)C(=O)N[C@@H](CCCNC(=N)N)C(=O)N[C@@H](CCCNC(=N)N)C(=O)N[C@@H](CCCNC(=N)N)C(N)=O)NC(=O)[C@H](C)NC(=O)[C@H](Cc2csc3ccccc23)NC(=O)[C@H](CCCNC(=N)N)NC(=O)[C@@H](Cc2ccc3ccccc3c2)NC(=O)[C@H](Cc2c[nH]cn2)NC(=O)[C@H](CCC(=O)O)NC1=O
B7: Ac-c(Cys-Glu-His-D-2-Nal-Arg-1-Nal-Ala-Cys)-Pro-Pro-Lys-Asp-β-[…]NH2 (peptide)
peptide: Ac-CEH[d2Nal]R[1Nal]ACPPKD[βAla]GRRKRRQRRR-NH2
modifications: disulfide 1-8
SMILES: CC(=O)N[C@H]1CSSC[C@@H](C(=O)N2CCC[C@H]2C(=O)N2CCC[C@H]2C(=O)N[C@@H](CCCCN)C(=O)N[C@@H](CC(=O)O)C(=O)NCCC(=O)NCC(=O)N[C@@H](CCCNC(=N)N)C(=O)N[C@@H](CCCNC(=N)N)C(=O)N[C@@H](CCCCN)C(=O)N[C@@H](CCCNC(=N)N)C(=O)N[C@@H](CCCNC(=N)N)C(=O)N[C@@H](CCC(N)=O)C(=O)N[C@@H](CCCNC(=N)N)C(=O)N[C@@H](CCCNC(=N)N)C(=O)N[C@@H](CCCNC(=N)N)C(N)=O)NC(=O)[C@H](C)NC(=O)[C@H](Cc2cccc3ccccc23)NC(=O)[C@H](CCCNC(=N)N)NC(=O)[C@@H](Cc2ccc3ccccc3c2)NC(=O)[C@H](Cc2c[nH]cn2)NC(=O)[C@H](CCC(=O)O)NC1=O
B8: Ac-c(Cys-Glu-His-D-2-Nal-Arg-1-Nal-Ala-Cys)-Pro-Pro-Lys-Asp-β-[…]NH2 (peptide)
peptide: Ac-CEH[d2Nal]R[1Nal]ACPPKD[βAla]GRKRRRQRRR-NH2
modifications: disulfide 1-8
SMILES: CC(=O)N[C@H]1CSSC[C@@H](C(=O)N2CCC[C@H]2C(=O)N2CCC[C@H]2C(=O)N[C@@H](CCCCN)C(=O)N[C@@H](CC(=O)O)C(=O)NCCC(=O)NCC(=O)N[C@@H](CCCNC(=N)N)C(=O)N[C@@H](CCCCN)C(=O)N[C@@H](CCCNC(=N)N)C(=O)N[C@@H](CCCNC(=N)N)C(=O)N[C@@H](CCCNC(=N)N)C(=O)N[C@@H](CCC(N)=O)C(=O)N[C@@H](CCCNC(=N)N)C(=O)N[C@@H](CCCNC(=N)N)C(=O)N[C@@H](CCCNC(=N)N)C(N)=O)NC(=O)[C@H](C)NC(=O)[C@H](Cc2cccc3ccccc23)NC(=O)[C@H](CCCNC(=N)N)NC(=O)[C@@H](Cc2ccc3ccccc3c2)NC(=O)[C@H](Cc2c[nH]cn2)NC(=O)[C@H](CCC(=O)O)NC1=O
B9: Ac-c(Cys-Glu-His-D-2-Nal-Arg-2-Nal-Ala-Cys)-Pro-Pro-Lys-Asp-β-[…]NH2 (peptide)
peptide: Ac-CEH[d2Nal]R[2Nal]ACPPKD[βAla]GRRKRRQRRR-NH2
modifications: disulfide 1-8
SMILES: CC(=O)N[C@H]1CSSC[C@@H](C(=O)N2CCC[C@H]2C(=O)N2CCC[C@H]2C(=O)N[C@@H](CCCCN)C(=O)N[C@@H](CC(=O)O)C(=O)NCCC(=O)NCC(=O)N[C@@H](CCCNC(=N)N)C(=O)N[C@@H](CCCNC(=N)N)C(=O)N[C@@H](CCCCN)C(=O)N[C@@H](CCCNC(=N)N)C(=O)N[C@@H](CCCNC(=N)N)C(=O)N[C@@H](CCC(N)=O)C(=O)N[C@@H](CCCNC(=N)N)C(=O)N[C@@H](CCCNC(=N)N)C(=O)N[C@@H](CCCNC(=N)N)C(N)=O)NC(=O)[C@H](C)NC(=O)[C@H](Cc2ccc3ccccc3c2)NC(=O)[C@H](CCCNC(=N)N)NC(=O)[C@@H](Cc2ccc3ccccc3c2)NC(=O)[C@H](Cc2c[nH]cn2)NC(=O)[C@H](CCC(=O)O)NC1=O

target: T1, human melanocortin receptor subtype 1 (hMC1-R) (human, UniProt Q01726 1-317); assay: [125I]-NDP-α-MSH competition, membranes
T1 construct: whole, on cells; membranes of CHO-K1 cells
T1 sequence (Q01726 whole entry): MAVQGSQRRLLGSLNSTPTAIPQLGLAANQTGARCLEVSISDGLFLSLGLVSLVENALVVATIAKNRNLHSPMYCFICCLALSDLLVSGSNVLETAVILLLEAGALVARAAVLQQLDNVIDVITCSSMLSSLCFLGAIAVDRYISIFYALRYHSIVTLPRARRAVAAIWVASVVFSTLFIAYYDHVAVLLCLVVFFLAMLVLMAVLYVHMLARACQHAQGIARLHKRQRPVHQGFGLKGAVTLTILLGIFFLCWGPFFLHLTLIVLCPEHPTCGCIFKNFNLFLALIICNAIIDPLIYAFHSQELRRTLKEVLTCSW

Binder | Ki [nM]
B1 | 2.93
B2 | 4.62
B3 | 3.41
B4 | 2.25
B5 | 4.11
B6 | 3.28
Ac-CEH[d2Nal]R[Bta]ACPPKD[βAla]GRRRRRQRRR-NH2 (disulfide 1-8) | 12.8
Ac-CEH[d2Nal]R[1Nal]ACPPKD[βAla]RRRRRRQRRR-NH2 (disulfide 1-8) | 6.66
B7 | 1.81
B8 | 2.69
B9 | 2.71

target: T2, human melanocortin receptor subtype 3 (hMC3-R) (human, UniProt P41968 1-323); assay: [125I]-NDP-α-MSH competition, membranes
T2 construct: whole, on cells; membranes of CHO-K1 cells
T2 sequence (P41968 whole entry): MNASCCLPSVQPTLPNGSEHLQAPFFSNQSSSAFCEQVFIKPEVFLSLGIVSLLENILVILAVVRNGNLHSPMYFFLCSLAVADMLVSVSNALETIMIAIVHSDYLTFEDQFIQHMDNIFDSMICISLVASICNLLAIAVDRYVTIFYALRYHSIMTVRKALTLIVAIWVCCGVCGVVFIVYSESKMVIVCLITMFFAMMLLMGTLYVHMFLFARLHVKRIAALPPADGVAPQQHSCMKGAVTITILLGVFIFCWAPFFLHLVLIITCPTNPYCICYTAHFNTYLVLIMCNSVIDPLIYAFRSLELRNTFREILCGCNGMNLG

Binder | Ki [nM]
B1 | 9.07
B2 | 5.68
B3 | 0.975
B4 | 0.62
B5 | 7.26
B6 | 1.95
Ac-CEH[d2Nal]R[Bta]ACPPKD[βAla]GRRRRRQRRR-NH2 (disulfide 1-8) | 15.9
Ac-CEH[d2Nal]R[1Nal]ACPPKD[βAla]RRRRRRQRRR-NH2 (disulfide 1-8) | 19.3
B7 | 2.08
B8 | 2.59
B9 | 0.732

target: T3, human melanocortin receptor subtype 4 (hMC4-R) (human, UniProt P32245 1-332); assay: [125I]-NDP-α-MSH competition, membranes
T3 construct: whole, on cells; membranes of CHO-K1 cells
T3 sequence (P32245 whole entry): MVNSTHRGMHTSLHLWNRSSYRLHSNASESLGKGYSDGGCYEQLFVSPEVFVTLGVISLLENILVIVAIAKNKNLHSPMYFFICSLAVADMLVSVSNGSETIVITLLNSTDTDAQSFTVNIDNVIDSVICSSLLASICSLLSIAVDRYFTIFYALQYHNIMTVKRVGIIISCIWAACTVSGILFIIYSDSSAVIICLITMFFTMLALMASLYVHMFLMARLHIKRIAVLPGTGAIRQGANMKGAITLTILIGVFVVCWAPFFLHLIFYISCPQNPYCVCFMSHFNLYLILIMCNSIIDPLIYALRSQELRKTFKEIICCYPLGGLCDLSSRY

Binder | Ki [nM]
B1 | 0.293
B2 | 0.505
B3 | 0.549
B4 | 0.303
B5 | 0.302
B6 | 0.575
Ac-CEH[d2Nal]R[Bta]ACPPKD[βAla]GRRRRRQRRR-NH2 (disulfide 1-8) | 0.95
Ac-CEH[d2Nal]R[1Nal]ACPPKD[βAla]RRRRRRQRRR-NH2 (disulfide 1-8) | 0.819
B7 | 0.305
B8 | 0.243
B9 | 0.202

target: T4, human melanocortin receptor subtype 5 (hMC5-R) (human, UniProt P33032 1-325); assay: [125I]-NDP-α-MSH competition, membranes
T4 construct: whole, on cells; membranes of CHO-K1 cells
T4 sequence (P33032 whole entry): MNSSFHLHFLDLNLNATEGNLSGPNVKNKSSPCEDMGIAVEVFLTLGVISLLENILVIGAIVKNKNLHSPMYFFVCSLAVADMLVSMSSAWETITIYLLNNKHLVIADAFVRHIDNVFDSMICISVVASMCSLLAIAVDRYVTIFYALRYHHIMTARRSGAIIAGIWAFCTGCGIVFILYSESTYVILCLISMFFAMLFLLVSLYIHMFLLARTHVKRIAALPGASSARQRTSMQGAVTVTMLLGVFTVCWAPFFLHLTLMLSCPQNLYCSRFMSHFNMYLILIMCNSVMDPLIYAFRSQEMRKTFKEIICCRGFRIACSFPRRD

Binder | Ki [nM]
B1 | 59
B2 | 45.3
B3 | 11.3
B4 | 2.77
B5 | 48.3
B6 | 15.5
Ac-CEH[d2Nal]R[Bta]ACPPKD[βAla]GRRRRRQRRR-NH2 (disulfide 1-8) | 165
Ac-CEH[d2Nal]R[1Nal]ACPPKD[βAla]RRRRRRQRRR-NH2 (disulfide 1-8) | 88.8
B7 | 19.3
B8 | 19.2
B9 | 5.53
